According to patent US20100037349A1 (University of California, published 2010):

T1: Arabidopsis NPR1 protein (Arabidopsis, UniProt P93002 1-593, limits assumed)
T1 construct: In the plant experiments it is the endogenous NPR1; also called NIM1; SAI1
T1 sequence (looked up): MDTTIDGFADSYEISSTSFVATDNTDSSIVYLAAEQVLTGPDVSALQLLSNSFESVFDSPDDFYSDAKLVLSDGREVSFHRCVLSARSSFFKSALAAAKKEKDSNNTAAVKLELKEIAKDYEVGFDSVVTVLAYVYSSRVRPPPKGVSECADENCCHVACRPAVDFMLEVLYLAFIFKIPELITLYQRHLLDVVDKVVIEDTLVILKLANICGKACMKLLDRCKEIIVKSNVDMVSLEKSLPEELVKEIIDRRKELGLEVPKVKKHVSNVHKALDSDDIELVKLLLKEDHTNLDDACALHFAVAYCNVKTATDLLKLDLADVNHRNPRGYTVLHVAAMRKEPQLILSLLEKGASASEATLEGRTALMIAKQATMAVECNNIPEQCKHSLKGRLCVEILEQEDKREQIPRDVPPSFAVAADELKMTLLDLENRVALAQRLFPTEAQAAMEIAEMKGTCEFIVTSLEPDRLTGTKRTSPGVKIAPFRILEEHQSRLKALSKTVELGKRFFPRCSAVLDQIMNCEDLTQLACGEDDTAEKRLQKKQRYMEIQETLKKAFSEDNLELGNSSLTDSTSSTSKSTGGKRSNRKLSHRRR


Experiments:
[1] = molecular target: Arabidopsis NPR1 protein (Arabidopsis) (UniProt P93002); assay: cell-based or functional assay
Arabidopsis NPR1 protein = molecular target: T1, Arabidopsis NPR1 protein; assay: interaction assay (yeast), summary of the examples

Chain of NIAD fusion protein (N-terminal first 52 amino acids of NRR fused to a VP16 activation domain) (P06492 whole entry, the tested form may be a part): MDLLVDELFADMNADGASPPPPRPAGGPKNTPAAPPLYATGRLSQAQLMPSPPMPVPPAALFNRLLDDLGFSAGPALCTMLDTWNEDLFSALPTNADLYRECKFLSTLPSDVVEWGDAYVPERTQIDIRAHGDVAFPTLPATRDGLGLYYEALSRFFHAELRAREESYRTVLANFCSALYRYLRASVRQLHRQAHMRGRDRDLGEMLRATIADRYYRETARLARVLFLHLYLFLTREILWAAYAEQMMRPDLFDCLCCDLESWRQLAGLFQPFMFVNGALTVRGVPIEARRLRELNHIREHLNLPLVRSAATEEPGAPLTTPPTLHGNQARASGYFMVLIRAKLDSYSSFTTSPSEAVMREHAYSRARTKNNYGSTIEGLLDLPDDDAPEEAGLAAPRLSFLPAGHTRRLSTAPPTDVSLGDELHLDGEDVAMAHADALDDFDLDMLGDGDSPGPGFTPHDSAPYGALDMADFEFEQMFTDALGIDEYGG

Row | binding result (Arabidopsis NPR1 protein) | Molecule | GUS activity from the BG2-Gus reporter after 0.1 mM INA induction (transgenic Arabidopsis line NIAD-22, repeat assay) [1] [fold over WT] | Pst DC3000 bacterial populations at day 4, wild type relative to the NIAD lines [1] [fold]
1 |  | NIAD fusion protein (N-terminal first 52 amino acids of NRR fused to a VP16 activation domain) (from UniProt P06492 413-490) | 2 | 4 to 5
2 | binds | rice NRR (Negative Regulator of disease Resistance) protein, wild type (other, also called wild type NRR) MDATTTDATTAKRKRPAASDIADDAPTTVDEVSDAEVEEFYAILRRMRDATRRLGARPPPPRAPAWRPSFSWEDFADAPPKQAPPPPQQPADHERVAENATPPRRPAPGLDLNVEPPSDAPATPRSARAPA |  | 
3 | binds | NRR single point mutant E39K (other, also called EK) MDATTTDATTAKRKRPAASDIADDAPTTVDEVSDAEVEKFYAILRRMRDATRRLGARPPPPRAPAWRPSFSWEDFADAPPKQAPPPPQQPADHERVAENATPPRRPAPGLDLNVEPPSDAPATPRSARAPA |  | 
